Results on 1 molecule are retold here after PMC4878091 (The Journal of Cell Biology, 2016).

This experiment addresses recombinant collagen IV α2 monomer (α2-84/α2-CB3). The experiment is described as follows: SEC.

B1: recombinant collagen IV α1 monomer (α1-84/α1-CB3) (domain or fragment)
chain: not shown
For B1, the “stoichiometry N” value amounted to 2.
